Data from patent US20260116996A1 (REGENTS OF THE UNIVERSITY OF MINNESOTA, published 2026).

How the values were obtained:
human serpinB11 = molecular target: T1, human serpinB11 (human, UniProt Q96P15 1-392); experiment: Luminex bead assay, beads coated with human serpinB11, background (Gfp and Scgn beads) subtracted
T1 construct: Luminex antigen captured from a 293 cell lysate; not shown: V5-His tag of the pcDNA3.1 Directional V5-His-TOPO vector
T1 sequence (looked up): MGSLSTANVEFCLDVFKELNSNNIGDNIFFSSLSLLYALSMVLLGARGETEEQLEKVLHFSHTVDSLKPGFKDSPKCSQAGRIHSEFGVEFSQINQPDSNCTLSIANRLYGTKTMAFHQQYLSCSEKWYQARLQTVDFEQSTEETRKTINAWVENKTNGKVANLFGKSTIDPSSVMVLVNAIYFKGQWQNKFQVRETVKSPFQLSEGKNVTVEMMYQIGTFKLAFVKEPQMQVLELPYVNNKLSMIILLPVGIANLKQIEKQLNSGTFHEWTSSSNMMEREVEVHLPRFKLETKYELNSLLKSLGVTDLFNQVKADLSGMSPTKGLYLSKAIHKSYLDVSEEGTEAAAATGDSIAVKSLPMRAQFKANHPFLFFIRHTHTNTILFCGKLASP
Method: (§1) The latter was determined as the average antibody binding to Luminex beads coated with Gfp and Scgn control antigens. Similar data were obtained for antigen binding of Fab fragments of these antibodies (data not shown).
(§2) Luminex assay. Luminex-based technology was used to measure serpinB13 AA in human samples. Initially, the Luminex beads were precoated with serpinB13, Gfp and Scgn, using precleared lysates of 293 cells that had been transfected with individual cDNAs. Biotinylated mouse anti-human K and 2 chain mAbs (BD Biosciences) (dilution 1:300) and streptavidin (Invitrogen) (dilution 1:200) were used as secondary reagents to measure human serum binding activity to individual antigens. The data were expressed as fluorescence intensity (F.I.) due to serum binding activity in the presence of beads precoated with serpinB13 and after subtracting the average F.I. due to serum binding activity in the presence of beads precoated with control proteins, Gfp and Scgn (e.g. F.I.^B13-[F.I.^GFP+F.I.^Segn]/2). The samples were evaluated based on the level of F.I. and the degree of inhibition of binding to serpin-B13 coated beads with soluble serpinB13 (2.5 μg/mL), compared with the bovine serum albumin (BSA). […] All samples were run blind on three independent occasions. Subjects with serum samples that produced a positive results three times were considered positive. Subjects with serum samples that produced a negative result on at least one occasion were considered negative.
(§3) To determine whether anti-serpin activity is specific, binding of three human recombinant antibodies to serpinB13 was examined for potential cross-reactivity with other clade B serpins. Binding to the beads conjugated with Gfp and Scgn was used to subtract the background and the assay was developed using the same reagents as those described above for measuring serpinB13 AA in serum samples.

human serpinB3 = molecular target: T2, human serpinB3 (human, UniProt P29508 1-390); experiment: ELISA cross-reactivity test / Luminex bead assay (FIG. 25)
T2 construct: Luminex antigen captured from a 293 cell lysate; not shown: V5-His tag of the pcDNA3.1 Directional V5-His-TOPO vector
T2 sequence (looked up): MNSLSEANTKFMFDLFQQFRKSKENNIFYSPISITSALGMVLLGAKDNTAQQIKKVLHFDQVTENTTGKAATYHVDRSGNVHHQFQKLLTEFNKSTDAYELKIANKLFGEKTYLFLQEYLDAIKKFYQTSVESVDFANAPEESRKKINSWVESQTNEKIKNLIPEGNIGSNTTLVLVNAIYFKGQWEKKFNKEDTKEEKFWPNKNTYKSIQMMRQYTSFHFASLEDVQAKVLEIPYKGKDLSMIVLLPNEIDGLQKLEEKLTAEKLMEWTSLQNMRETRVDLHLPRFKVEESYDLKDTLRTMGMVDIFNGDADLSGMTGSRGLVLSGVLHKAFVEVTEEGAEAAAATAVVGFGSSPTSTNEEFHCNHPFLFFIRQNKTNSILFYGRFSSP
Method: (§4) Three recombinant human anti-serpinB13 antibodies were examined in the Luminex-based assay for binding to other clade B serpins, in order as indicated. The final concentration of each antibody was 1.0 μg/mL. The data are expressed as immunofluorescence intensity measured for binding to individual human serpin antigens after subtracting the background. The latter was determined as the average antibody binding to Luminex beads coated with Gfp and Scgn control antigens. Similar data were obtained for antigen binding of Fab fragments of these antibodies (data not shown).
as §2
(§5) To determine whether anti-serpin activity is specific, binding of three human recombinant antibodies to serpinB13 was examined for potential cross-reactivity with other clade B serpins.

human serpinB10 = molecular target: T3, human serpinB10 (human, UniProt P48595 1-397); experiment: as above
T3 construct: Luminex antigen captured from a 293 cell lysate; not shown: V5-His tag of the pcDNA3.1 Directional V5-His-TOPO vector
T3 sequence (looked up): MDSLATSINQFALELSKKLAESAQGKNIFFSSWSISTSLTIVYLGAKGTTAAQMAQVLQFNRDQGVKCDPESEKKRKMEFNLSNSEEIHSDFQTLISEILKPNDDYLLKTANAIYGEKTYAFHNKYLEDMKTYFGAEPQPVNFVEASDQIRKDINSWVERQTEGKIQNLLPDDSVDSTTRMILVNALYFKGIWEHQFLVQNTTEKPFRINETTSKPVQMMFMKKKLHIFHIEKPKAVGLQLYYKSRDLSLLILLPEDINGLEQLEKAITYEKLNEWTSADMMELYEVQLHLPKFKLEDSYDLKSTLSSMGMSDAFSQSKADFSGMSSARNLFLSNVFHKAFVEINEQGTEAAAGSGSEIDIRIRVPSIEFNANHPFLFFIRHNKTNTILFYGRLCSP
Method: as §4, §2, §5

human serpinB5 = molecular target: T4, human serpinB5 (human, UniProt P36952 1-375); experiment: Luminex bead assay, beads coated with human serpinB5, background (Gfp and Scgn beads) subtracted
T4 construct: Luminex antigen captured from a 293 cell lysate; not shown: V5-His tag of the pcDNA3.1 Directional V5-His-TOPO vector
T4 sequence (looked up): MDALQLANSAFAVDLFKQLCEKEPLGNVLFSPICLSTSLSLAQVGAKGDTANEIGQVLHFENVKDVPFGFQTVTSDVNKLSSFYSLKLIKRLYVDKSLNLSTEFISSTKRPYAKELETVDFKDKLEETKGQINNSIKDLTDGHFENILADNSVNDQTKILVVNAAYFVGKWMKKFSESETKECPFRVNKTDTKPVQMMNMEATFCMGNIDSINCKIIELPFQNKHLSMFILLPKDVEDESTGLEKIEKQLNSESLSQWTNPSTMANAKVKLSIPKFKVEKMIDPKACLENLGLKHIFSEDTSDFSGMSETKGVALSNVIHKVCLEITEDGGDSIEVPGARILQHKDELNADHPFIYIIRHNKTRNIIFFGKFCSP
Method: as §1, §2, §3

Measured: binding result

B1: recombinant fully human anti-serpinB13 antibody Clone 3 (antibody, human IgG1, kappa, V domains shown)
VH: QVQLQQWGAGLLKPSETLSLTCAVYGGSFSGYYWSWIRQPPGKGLEWIGEINHSGSTNYNPSLKSRVTISVDTSKNQFSLKLSSVTAADTAVYYCARRYCSGGSCYLVGTGSELDYWGQGTLVTVSS
VL: DIQMTQSPSTLSASVGDRVTITCRASQSISSWLAWYQQKPGKAPKLLIYKASSLEIGVPSRFSGSGYGTEFTLTISSLQPDDFATYYCLQYSTHSTFGQGTRVEIKR
notes: also called mAb3; CLONE3-H(m1) / CLONE3-L(m1)
no binding (tested: 1.0 µg/mL): all assays above

B2: recombinant fully human anti-serpinB13 antibody Clone 1 (antibody, human IgG1, kappa, V domains shown)
VH: QVQLQESGGGVVQPGRSLRLSCAASGFTFSSYGMHWVRQAPGKGLEWVAVISYDGSNKYYADSVKGRFTISRDNSKNTLYLQMNSLRAEDTAVYYCARDLGAVIAVAGTSTPYNWFDPWGQGTLVTVSS
VL: DVVMTQSPLSLPVTPGEPASISCRSRQSLLHSNGHNYLGWYLQKPGQSPQLLIYLASIRASGIPDRFSGSGSGTDFTLKISRVEAEDVGVYYCMQALQTPYTFGQGTKLEIKR
notes: also called mAb1; mAbs1
no binding (tested: 1.0 µg/mL): all assays above

B3: recombinant fully human anti-serpinB13 antibody Clone 2 (antibody, human IgG1, kappa, V domains shown)
VH: QMQLVQSGGGVVRPGGSLRLSCAASGFTFDDYGMSWVRQAPGKGLEWVSGINWNGGSTGYADSVKGRFTISRDNAKNSLYLQMNSLRAEDTALYYCARESSMTTVTTYLLREVGVGLDFDYWGQGTLVTVSS
VL: ETTLTQSPGTLSLSPGERATLSCRASQTVSGSYLAWYQQKPGQPPRLLIYGASSRATGIPDRFSGSGSGTDFTLTISRLEPEDFAVYYCQDYGSSRTFGQGTKVELKR
notes: also called mAb2; CLONE2-H(m1) / CLONE2-L(m1)
no binding (tested: 1.0 µg/mL): all assays above
